Molecular target: B7-H3 receptor on human CD4+ T cells (human)
Test: cell-based or functional assay

GM-CSF level reduced relative to GFP controls (multiplex ELISA, 72 h) [%] | IFN-γ level reduced relative to GFP controls (multiplex ELISA, 72 h) [%] | IL-10 level reduced relative to GFP controls (multiplex ELISA, 72 h) [%] | TNF-α level reduced relative to GFP controls (multiplex ELISA, 72 h) [%] | Binder
65 | 85 | 81 | 69 | human B7-H3 VCVC (expressed on CHO.HLA-DR2 transfectants) (ligand) LEVQVPEDPVVALVGTDATLCCSFSPEPGFSLAQLNLIWQLTDTKQLVHSFAEGQDQGSAYANRTALFPDLLAQGNASLRLQRVRVADEGSFTCFVSIRDFGSAAVSLQVAAPYSKPSMTLEPNKDLRPGDTVTITCSSYQGYPEAEVFWQDGQGVPLTGNVTTSQMANEQGLFDVHSILRVVLGANGTYSCLVRNPVLQQDAHSSVTITPQRSPTGAVEVQVPEDPVVALVGTDATLRCSFSPEPGFSLAQLNLIWQLTDTKQLVHSFTEGRDQGSAYANRTALFPDLLAQGNASLRLQRVRVADEGSFTCFVSIRDFGSAAVSLQVAAPYSKPSMTLEPNKDLRPGDTVTITCSSYRGYPEAEVFWQDGQGVPLTGNVTTSQMANEQGLFDVHSVLRVVLGANGTYSCLVRNPVLQQDAHGSVTITGQPMTFPPEALWVTVGLSVCLIALLVALAFVCWRKIKQSCEEENAGAEDQDGEGEGSKTALQPLKHSDSKEDDGQEIA
65 | 85 | 81 | 69 | human B7-H3 VC (expressed on CHO.HLA-DR2 transfectants) (ligand) LEVQVPEDPVVALVGTDATLCCSFSPEPGFSLAQLNLIWQLTDTKQLVHSFAEGQDQGSAYANRTALFPDLLAQGNASLRLQRVRVADEGSFTCFVSIRDFGSAAVSLQVAAPYSKPSMTLEPNKDLRPGDTVTITCSSYRGYPEAEVFWQDGQGVPLTGNVTTSQMANEQGLFDVHSVLRVVLGANGTYSCLVRNPVLQQDAHGSVTITGQPMTFPPEALWVTVGLSVCLIALLVALAFVCWRKIKQSCEEENAGAEDQDGEGEGSKTALQPLKHSDSKEDDGQEIA

Reference: US20050002935A1
